Source: the supplement of paper PMC9112550, “Optimization of the antimicrobial peptide Bac7 by deep mutational scanning” (BMC Biology, 2022)
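Also: peptides expressed intracellularly from a pBAD plasmid library in pooled LB shake-flask culture, induced with 0.3% L-arabinose, DNA abundance read by NGS, three biological replicates, DESeq2 with apeglm shrinkage.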

The sequences below were run on Escherichia coli TOP10 (assay: shrunken log2 fold change of peptide-encoding DNA abundance (4.5 h post-induction vs induction); higher = less antimicrobial activity (less host growth inhibition)). Conditions: time post-induction: 4.5 h; library: site-saturation at positions 5, 18, 19, 20.
In the case of RRIRHRPPRLPRPRPRPIGAPRP, the “shrunken log2 fold change” value is reported as 0.173. In the case of RRIRFRPPRLPRPRPRPRPWPRP, the “shrunken log2 fold change” value is reported as 0.505. With RRIRARPPRLPRPRPRPRYSPRP the “shrunken log2 fold change” value was -0.121. In the case of RRIRDRPPRLPRPRPRPYPPPRP, the “shrunken log2 fold change” value is reported as -0.426. RRIRFRPPRLPRPRPRPSGKPRP was tested, and the “shrunken log2 fold change” value was -0.0093. In the case of RRIRPRPPRLPRPRPRPCINPRP, the “shrunken log2 fold change” value is reported as -0.726. With RRIRQRPPRLPRPRPRPCFLPRP the “shrunken log2 fold change” value was 0.115. In the case of RRIRPRPPRLPRPRPRPENNPRP, the “shrunken log2 fold change” value is reported as -0.119. With RRIRVRPPRLPRPRPRPHLAPRP the “shrunken log2 fold change” value was 0.101. In the case of RRIRFRPPRLPRPRPRPLWWPRP, the “shrunken log2 fold change” value is reported as 0.172. With RRIRTRPPRLPRPRPRPPMPPRP the “shrunken log2 fold change” value was 0.144. With RRIRMRPPRLPRPRPRPIHYPRP the “shrunken log2 fold change” value was -0.689. With RRIRYRPPRLPRPRPRPMRQPRP the “shrunken log2 fold change” value was -0.0148. RRIRCRPPRLPRPRPRPSRPPRP was tested, and the “shrunken log2 fold change” value was 0.245. RRIRIRPPRLPRPRPRPDANPRP was tested, and the “shrunken log2 fold change” value was 0.219. In the case of RRIRTRPPRLPRPRPRPLQIPRP, the “shrunken log2 fold change” value is reported as 4.62. For RRIRHRPPRLPRPRPRPIYHPRP, the “shrunken log2 fold change” value was -0.0782. With RRIRVRPPRLPRPRPRPPMEPRP the “shrunken log2 fold change” value was -0.172. For RRIRTRPPRLPRPRPRPINHPRP, the “shrunken log2 fold change” value was -0.718. For RRIRWRPPRLPRPRPRPPCCPRP, the “shrunken log2 fold change” value was 0.198. For RRIRVRPPRLPRPRPRPRVFPRP, the “shrunken log2 fold change” value was 0.218. In the case of RRIRGRPPRLPRPRPRPMMLPRP, the “shrunken log2 fold change” value is reported as 0.158. In the case of RRIRRRPPRLPRPRPRPQNKPRP, the “shrunken log2 fold change” value is reported as -0.172. In the case of RRIRHRPPRLPRPRPRPVYKPRP, the “shrunken log2 fold change” value is reported as -0.665. In the case of RRIRHRPPRLPRPRPRPAQKPRP, the “shrunken log2 fold change” value is reported as -0.0418. RRIRLRPPRLPRPRPRPGKPPRP was tested, and the “shrunken log2 fold change” value was -0.0724. RRIRERPPRLPRPRPRPRIPPRP was tested, and the “shrunken log2 fold change” value was -0.269. For RRIRTRPPRLPRPRPRPSTDPRP, the “shrunken log2 fold change” value was 0.201. For RRIRQRPPRLPRPRPRPHRKPRP, the “shrunken log2 fold change” value was -0.227. RRIRWRPPRLPRPRPRPKWYPRP was tested, and the “shrunken log2 fold change” value was -0.235. With RRIRQRPPRLPRPRPRPLRWPRP the “shrunken log2 fold change” value was 0.585. With RRIRVRPPRLPRPRPRPVCTPRP the “shrunken log2 fold change” value was 0.165. With RRIRWRPPRLPRPRPRPIGSPRP the “shrunken log2 fold change” value was -0.0153. RRIRCRPPRLPRPRPRPTDGPRP was tested, and the “shrunken log2 fold change” value was -0.116. For RRIRPRPPRLPRPRPRPQWLPRP, the “shrunken log2 fold change” value was -0.0256. With RRIRGRPPRLPRPRPRPGYMPRP the “shrunken log2 fold change” value was -0.0736. With RRIRPRPPRLPRPRPRPMAQPRP the “shrunken log2 fold change” value was 0.177. RRIRNRPPRLPRPRPRPPYKPRP was tested, and the “shrunken log2 fold change” value was -0.311. For RRIRTRPPRLPRPRPRPLQSPRP, the “shrunken log2 fold change” value was -0.00232. For RRIRLRPPRLPRPRPRPLTTPRP, the “shrunken log2 fold change” value was -0.0027. RRIRNRPPRLPRPRPRPRHCPRP was tested, and the “shrunken log2 fold change” value was 0.00979. With RRIRPRPPRLPRPRPRPCTNPRP the “shrunken log2 fold change” value was -0.0219. In the case of RRIRNRPPRLPRPRPRPVLDPRP, the “shrunken log2 fold change” value is reported as -0.299. RRIRCRPPRLPRPRPRPSAPPRP was tested, and the “shrunken log2 fold change” value was 0.0889. For RRIRWRPPRLPRPRPRPWKDPRP, the “shrunken log2 fold change” value was -0.000687. In the case of RRIRQRPPRLPRPRPRPPRTPRP, the “shrunken log2 fold change” value is reported as 0.669. In the case of RRIRIRPPRLPRPRPRPLGLPRP, the “shrunken log2 fold change” value is reported as -0.177. With RRIRTRPPRLPRPRPRPWHSPRP the “shrunken log2 fold change” value was -0.274. With RRIRMRPPRLPRPRPRPVNGPRP the “shrunken log2 fold change” value was -0.0577. RRIRDRPPRLPRPRPRPWNTPRP was tested, and the “shrunken log2 fold change” value was -0.166. RRIRERPPRLPRPRPRPRIHPRP was tested, and the “shrunken log2 fold change” value was -0.737. RRIRCRPPRLPRPRPRPYSRPRP was tested, and the “shrunken log2 fold change” value was -0.0442. With RRIRERPPRLPRPRPRPAADPRP the “shrunken log2 fold change” value was 0.127. In the case of RRIRFRPPRLPRPRPRPPKCPRP, the “shrunken log2 fold change” value is reported as 0.0793. With RRIRPRPPRLPRPRPRPKQRPRP the “shrunken log2 fold change” value was 0.186. With RRIRMRPPRLPRPRPRPKQTPRP the “shrunken log2 fold change” value was 3.33. For RRIRDRPPRLPRPRPRPYWRPRP, the “shrunken log2 fold change” value was -0.0818. For RRIRGRPPRLPRPRPRPGNVPRP, the “shrunken log2 fold change” value was 0.22. For RRIRARPPRLPRPRPRPGCDPRP, the “shrunken log2 fold change” value was 0.78. In the case of RRIRRRPPRLPRPRPRPPWNPRP, the “shrunken log2 fold change” value is reported as 0.474. For RRIRRRPPRLPRPRPRPWPIPRP, the “shrunken log2 fold change” value was 0.0239. With RRIRFRPPRLPRPRPRPPGEPRP the “shrunken log2 fold change” value was 0.421. For RRIRDRPPRLPRPRPRPHTSPRP, the “shrunken log2 fold change” value was 0.0247. In the case of RRIRCRPPRLPRPRPRPVTSPRP, the “shrunken log2 fold change” value is reported as -0.0245. For RRIRFRPPRLPRPRPRPMYYPRP, the “shrunken log2 fold change” value was -0.123. For RRIRPRPPRLPRPRPRPTSGPRP, the “shrunken log2 fold change” value was 0.173. For RRIRLRPPRLPRPRPRPALRPRP, the “shrunken log2 fold change” value was 0.178. In the case of RRIRLRPPRLPRPRPRPRQKPRP, the “shrunken log2 fold change” value is reported as 0.154. For RRIRNRPPRLPRPRPRPFTCPRP, the “shrunken log2 fold change” value was -0.215. In the case of RRIRARPPRLPRPRPRPNPEPRP, the “shrunken log2 fold change” value is reported as 0.0539. In the case of RRIRMRPPRLPRPRPRPEEFPRP, the “shrunken log2 fold change” value is reported as 0.0141. For RRIRPRPPRLPRPRPRPTWYPRP, the “shrunken log2 fold change” value was -0.133. In the case of RRIRWRPPRLPRPRPRPRAKPRP, the “shrunken log2 fold change” value is reported as 0.788. RRIRPRPPRLPRPRPRPANCPRP was tested, and the “shrunken log2 fold change” value was 0.0263. With RRIRERPPRLPRPRPRPVDRPRP the “shrunken log2 fold change” value was 0.0364. In the case of RRIRMRPPRLPRPRPRPVVYPRP, the “shrunken log2 fold change” value is reported as -0.0377. In the case of RRIRTRPPRLPRPRPRPYSQPRP, the “shrunken log2 fold change” value is reported as -0.0274. RRIRIRPPRLPRPRPRPECLPRP was tested, and the “shrunken log2 fold change” value was 0.0969. With RRIRSRPPRLPRPRPRPRVFPRP the “shrunken log2 fold change” value was 0.151. In the case of RRIRGRPPRLPRPRPRPASHPRP, the “shrunken log2 fold change” value is reported as 0.252. For RRIRVRPPRLPRPRPRPLAAPRP, the “shrunken log2 fold change” value was 0.152. With RRIRPRPPRLPRPRPRPPFCPRP the “shrunken log2 fold change” value was 0.317. For RRIRRRPPRLPRPRPRPGSIPRP, the “shrunken log2 fold change” value was -0.0979. With RRIRQRPPRLPRPRPRPQCKPRP the “shrunken log2 fold change” value was -0.102. RRIRRRPPRLPRPRPRPGESPRP was tested, and the “shrunken log2 fold change” value was 0.0142. RRIRMRPPRLPRPRPRPDNDPRP was tested, and the “shrunken log2 fold change” value was 1.41. In the case of RRIRERPPRLPRPRPRPIMDPRP, the “shrunken log2 fold change” value is reported as -0.247. RRIRDRPPRLPRPRPRPYNSPRP was tested, and the “shrunken log2 fold change” value was -0.237. In the case of RRIRPRPPRLPRPRPRPRARPRP, the “shrunken log2 fold change” value is reported as 0.58. In the case of RRIRGRPPRLPRPRPRPKIYPRP, the “shrunken log2 fold change” value is reported as 0.000217. For RRIRGRPPRLPRPRPRPLKEPRP, the “shrunken log2 fold change” value was 0.343. For RRIRNRPPRLPRPRPRPGWYPRP, the “shrunken log2 fold change” value was -0.273. For RRIRWRPPRLPRPRPRPQIGPRP, the “shrunken log2 fold change” value was 0.0807. RRIRSRPPRLPRPRPRPQQSPRP was tested, and the “shrunken log2 fold change” value was -0.235. With RRIRLRPPRLPRPRPRPLMSPRP the “shrunken log2 fold change” value was -0.0608. RRIRWRPPRLPRPRPRPYVFPRP was tested, and the “shrunken log2 fold change” value was -0.142. For RRIRSRPPRLPRPRPRPTSKPRP, the “shrunken log2 fold change” value was 0.0753. With RRIRFRPPRLPRPRPRPVPQPRP the “shrunken log2 fold change” value was 0.261. For RRIRHRPPRLPRPRPRPVQRPRP, the “shrunken log2 fold change” value was -0.0182. With RRIRTRPPRLPRPRPRPWSNPRP the “shrunken log2 fold change” value was 0.0394. In the case of RRIRNRPPRLPRPRPRPQASPRP, the “shrunken log2 fold change” value is reported as -0.187. For RRIRRRPPRLPRPRPRPESSPRP, the “shrunken log2 fold change” value was 0.53. In the case of RRIRVRPPRLPRPRPRPMWFPRP, the “shrunken log2 fold change” value is reported as -0.0469. For RRIRPRPPRLPRPRPRPWSWPRP, the “shrunken log2 fold change” value was 0.217. For RRIRCRPPRLPRPRPRPKPCPRP, the “shrunken log2 fold change” value was 0.084. In the case of RRIRGRPPRLPRPRPRPQTAPRP, the “shrunken log2 fold change” value is reported as 0.205. RRIRLRPPRLPRPRPRPPIDPRP was tested, and the “shrunken log2 fold change” value was 0.13. For RRIRHRPPRLPRPRPRPCPNPRP, the “shrunken log2 fold change” value was -0.00414. In the case of RRIRTRPPRLPRPRPRPDWWPRP, the “shrunken log2 fold change” value is reported as 0.016. With RRIRHRPPRLPRPRPRPWYTPRP the “shrunken log2 fold change” value was -0.17. For RRIRLRPPRLPRPRPRPPCEPRP, the “shrunken log2 fold change” value was 0.123. With RRIRYRPPRLPRPRPRPMVYPRP the “shrunken log2 fold change” value was -0.00783. With RRIRDRPPRLPRPRPRPCEPPRP the “shrunken log2 fold change” value was 0.194. With RRIRYRPPRLPRPRPRPPVYPRP the “shrunken log2 fold change” value was -0.406. RRIRNRPPRLPRPRPRPDRMPRP was tested, and the “shrunken log2 fold change” value was -0.282. For RRIRYRPPRLPRPRPRPVGMPRP, the “shrunken log2 fold change” value was -0.083. RRIRDRPPRLPRPRPRPGSPPRP was tested, and the “shrunken log2 fold change” value was 0.0355. In the case of RRIRGRPPRLPRPRPRPNCVPRP, the “shrunken log2 fold change” value is reported as 0.543. With RRIRVRPPRLPRPRPRPGYWPRP the “shrunken log2 fold change” value was 0.0156. In the case of RRIRARPPRLPRPRPRPSLSPRP, the “shrunken log2 fold change” value is reported as -0.224. In the case of RRIRQRPPRLPRPRPRPNMKPRP, the “shrunken log2 fold change” value is reported as -0.336. For RRIRRRPPRLPRPRPRPCAEPRP, the “shrunken log2 fold change” value was 0.393. For RRIRARPPRLPRPRPRPFTQPRP, the “shrunken log2 fold change” value was -0.0692. With RRIRNRPPRLPRPRPRPKEGPRP the “shrunken log2 fold change” value was -0.0345. RRIRWRPPRLPRPRPRPYIPPRP was tested, and the “shrunken log2 fold change” value was -1.15.
